Assay results reported in patent publication US20030134774A1, “Methods for inhibiting cardiac disorders” (priority 2001, published 2003).

Legend:
Type in all cases: cell-based, rat
[1] = test system: cardiomyocytes; experiment: TUNEL assay of apoptosis in cardiomyocyte cultures
Protocol: rPMT increases H2O2-induced apoptosis in cardiomyocyte cultures. Cells were treated without or with rPMT (400 ng/ml) for 24 hr followed by H202 (500 μM) for 24 hr. The percentage of cells undergoing apoptosis was measured by TUNEL assay as described in Methods below. Data are from a single experiment and are representative of results obtained on 3 separate culture preparations.
TUNEL staining was performed for detection of apoptotic cells according to manufacturer's instructions (Boehringer). Approximately 500 cardiomyocytes were imaged by fluorescence microscopy and the number of cells that scored TUNEL-positive is presented as a percentage of total.

[2] = test system: AKT; experiment: Phospho-AKT and total AKT Western blot in cardiomyocytes
Protocol: rPMT decreases basal AKT phosphorylation and prevents its phosphorylation by EGF. Neonatal rat cardiomyocytes were treated with rPMT (400 ng/ml) for 24 hr (Panel A), 48 hr (Panel B) or with EGF (50 ng/ml) for 5 min. Cell lysates were subjected to SDS-PAGE followed by Western blotting with antibodies that recognize the phosphorylated form or total AKT. Data are from representative gels, with similar results obtained in 3 separate experiments.
Panel A: Cells were treated with norepinephrine (NE, 10 μM) or PMA (100 nM) for 5 min without or with GF109203 (5 μM).
Panel B: Cells were treated with rPMT (400 ng/ml), NE (10 μM) or PMA (100 nM) for 24 hr without or with Go6983 (5 μM). […] Cell lysates were subjected to SDS-PAGE followed by Western blotting using a specific anti-phospho-AKT antibody. Data are from representative gels, with similar results obtained in 3 separate culture preparations.
Specific immunoreactivity for individual PKC isoforms was quantified according to methods described previously. For assays of MAPKs and AKT, cells were exposed to test agents as indicated in individual experimental protocols, washed three times with ice-cold calcium/magnesium-free Dulbecco's PBS (pH 7.1), scraped into ice-cold extraction buffer [20 mM β-glycerophosphate pH 7.5, 20 mM sodium fluoride, 2 mM EDTA, 0.2 mM sodium vanadate, 10 μg/ml aprotinin, 25 μg/ml leupeptin, 50 μg/ml PMSF, and 0.3% (v/v) β-mercaptoethanol], lysed by sonication, and centrifuged at 10,000 g for 10 min at 4° C. The supernatant was diluted in SDS-PAGE sample buffer, boiled for 5 min, and stored at −70° C. Western blot analysis was performed with antibodies that are selective for the phosphorylated (activated) forms of ERK1/2, p38-MAPK, JNK, AKT, and pan-PKC according to manufacturer's instructions. For each panel in each Figure, the results are from a single gel exposed for a uniform duration. Bands were detected by enhanced chemiluminescence and blots were quantified by laser scanning densitometry.

[3] = test system: ANF mRNA; experiment: Northern blot analysis of ANF mRNA in cardiomyocytes; details: rPMT 400 ng/ml or NE 10 μM, 48 hr, serum-free
Protocol: (§1) rPMT mimics the effect of norepinephrine to promote cardiomyocyte hypertrophy. Cardiomyocytes were cultured in serum-free medium without or with rPMT (400 ng/ml) or norepinephrine (NE, 10 μM) for 48 hr. Cardiomyocytes were fixed, permeabilized, and stained with monoclonal anti-α-actinin sarcomeric (Panel A, magnification×100) or subjected to Northern blot analysis for measurements of steady-state ANF mRNA expression (Panel B). Effects of rPMT (black bars) and NE (gray bars) vs. vehicle (white bars) on sarcomeric organization (Panel C), cell size (Panel D), and protein synthesis (Panel E) are illustrated (n=3 for each).
Total RNA from neonatal rat cardiomyocytes were isolated by using a Qiagen kit according to manufacturer's instructions. A rat ANF cDNA probe (˜600 bp) was labeled with [^32P]dCTP. 10 μ/g of total RNA was separated on a 1% agarose gel and transferred to a nylon membrane (Amersham). Prehybridization and hybridization were performed according to standard methods. Normalization of signals was performed with a glyceraldehyde-3-phosphate dehydrogenase probe. Signals were detected by Phosphorimage analysis.

[4] = test system: PLC; experiment: Inositol phosphate production (PLC activation) in cardiomyocyte cultures
Protocol: rPMT activates PLC. Cardiomyocyte cultures were incubated in media containing 3 μCi/ml [^3H] myoinositol for 96 hr, with 400 ng/ml rPMT for the indicated intervals at the end of this interval (Panel A) or the indicated concentration of rPMT included in the culture medium during the final 24 hr of culture (Panel B). This was followed by 30 min in the presence of 10 mM LiCl to inhibit the hydrolysis of inositol phosphate metabolites. Results are expressed as cpm over basal (mean±SEM; n=3) from a single experiment, and are representative of results obtained in 3 separate culture preparations.
Cardiomyocytes grown in six-well plates were labeled with 3 μCi/ml [^3H]myoinositol for 96 hr. Treatment with rPMT was during the final 24 hr of this interval. Cells were washed to remove unincorporated radioisotope and then incubated for an additional 20 min with HEPES-buffered saline containing 10 mM LiCl. Cells were lysed with 1.05 mls of chloroform/methanol/6M HCl (500:1000:3) and harvested, and lipids were extracted for 30 min at room temperature. 1.05 mls of chloroform/water (1:2) were added, and the mixture was vortexed and centrifuged at 2000 g for 5 min to separate the phases. The aqueous phase was transferred to Dowex anion-exchange columns, and inositol phosphates were eluted sequentially according to standard methods as described previously (13).

[5] = test system: cardiomyocytes; experiment: Cardiomyocyte growth: sarcomeric organization and cell size; details: rPMT 400 ng/ml or NE 10 μM, 48 hr, serum-free
Protocol: as §1
Cardiomyocyte growth was assessed by measuring cell surface area by digitized image analysis. For each experimental point, 7-10 frames/dish were recorded at 40× magnification with a video camera attached to a Nikon microscope which was calibrated with a micrometer.
Cardiomyocytes were grown on slides precoated with fibronectin. After treatment, cells were fixed with cold methanol and permeabilized with 0.1% Triton X-100 and 0.2% BSA. Cells were incubated with α-actinin monoclonal antibody overnight at 4° C. followed by anti-mouse IgG-Cy3-labeled antibody for 30 min at room temperature. Fluorescence microscopy images were obtained at 100× magnification.

B1: rPMT: recombinant Pasteurella multocida toxin, a Gαq agonist used as pharmacological probe (protein, UniProt P17452 1-1285, looked up)
Dermonecrotic toxin: MKTKHFFNSDFTVKGKSADEIFRRLCTDHPDKQLNNVKWKEVFINRFGQMMLDTPNPRKIVEKIINEGLEKQGLKNIDPETTYFNIFSSSDSSDGNVFHYNSLSESYRVTDACLMNIFVERYFDDWDLLNSLASNGIYSVGKEGAYYPDHDYGPEYNPVWGPNEQIYHSRVIADILYARSVWDEFKKYFMEYWQKYAQLYTEMLSDTFLAMAIQQYTRQTLTDEGFLMVCNTYYGNKEEVQITLLDIYGYPSTDIICIEQKGLPTPKVILYIPGGTQPFVEFLNTDDLKQWIAWHLKDNKHMVAFRKHFSLKQRQEGETFTGIDKALQYIAEESPEWPANKYILYNPTHLETENLFNIMMKRTEQRMLEDSDVQIRSNSEATRDYALSLLETFISQLSAIDMLVPAVGIPINFALSATALGLSSDIVVNGDSYEKRKYGIGSLVQSALFTGINLIPVISETAEILSSFSRTEEDIPAFFTEEQALAQRFEIVEEELHSISPDDPPREITDENLHKIRLVRLNNENQPLVVLRRLGGNKFIRIEPITFQEIKGSLVSEVINPVTNKTYYVSNAKLLGGSPYSPFRIGLEGVWTPEVLKARASVIGKPIGESYKRILAKLQRIHNSNILDERQGLMHELMELIDLYEESQPSSERLNAFRELRTQLEKALYLPEMEALKKQILQIPNKGSGAARFLLRTAMNEMAGKTSESTADLIRFALQDTVISAPFRGYAGAIPEAIDFPVKYVIEDISVFDKIQTNYWELPAYESWNEGSNSALLPGLLRESQSKGMLSKCRIIENSLYIGHSYEEMFYSISPYSNQVGGPYELYPFTFFSMLQEVQGDLGFEQAFATRNFFNTLVSDRLSLMENTMLLTESFDYTPWDAIYGDINYDEQFAAMSINERIEKCMNTYRGVAFQNSSKSIDFFLNNLTTFIDNGLTEIAISDLPYDIVQQEISQFLQGSNEWKTLDAMLFNLDKGDINGAFRKLLQSAKDNNIKFRAIGHSDNSVPPFNNPYKSLYYKGNIIAEAIEKLDREGQKFVVFADSSLLNSTPGTGRPMPGLVQYLKIPATVVDSDGAWQFLPDVASSRVPIEVTELENWQVLTPPQGKILGLKQFKLTAGFPTEQSRLPLLENSVSEDLREELMQKIDAIKNDVKMNSLVCMEAGSCDSVSPKVAARLKDMGLEAGMGASITWWRREGGMEFSHQMHTTASFKFAGKEFAVDASHLQFVHDQLDTTILILPVDDWALEIAQRNRAINPFVEYVSKTGNMLALFMPPLFTKPRLTRAL
effect on H2O2-induced apoptosis ([1]; rPMT 400 ng/ml 24 hr followed by H2O2 500 μM 24 hr): augmented
number of TUNEL-positive cells ([1]; serum-free conditions for 48 hr): small increase
total AKT immunoreactivity, treated vs control cultures [2]: similar
basal AKT phosphorylation after 24 hr treatment ([2]; 24 hr, relative to control cultures): reduced basal AKT phosphorylation
effect on AKT activation by EGF ([2]; rPMT-treated cultures): blunted
ANF mRNA expression [3]: induce ANF mRNA expression
toxin concentration giving maximal activation of inositol phosphate accumulation ([4]; at 24 hr, batches vary): 400 ng/mL
inositol phosphate accumulation ([4]; cardiomyocytes): promotes inositol phosphate accumulation
time at which the inositol phosphate response is detectable ([4]; cardiomyocytes, 400 ng/ml): 1 h
time at which the inositol phosphate response is maximal ([4]; cardiomyocytes, 400 ng/ml): 48 h
cell size (cellular enlargement) [5]: induce marked cellular enlargement
myofibrillar (sarcomeric) organization [5]: promote myofibrillar organization
